Results published in patent publication US6156727A, “Anti-atherosclerotic peptides and a transgenic mouse model of antherosclerosis” (UAB Research Foundation, priority 1997, dated 2000).
“And” between values parts separate entries of the source, which are not always exact repeats. Equal values may be shown once. Read-outs that look alike come from different tables or passages of the source. No end group written: not given here.

Key:
[1] = test system: spontaneous lesions in apoE-knockout mice; test: IP administration of modified 18A peptide to apoE-knockout mice on normal diet; assay type: in vivo; settings: for aortal lesions: IP administration, apoE-knockout mice
Protocol: Similar experiments were completed in apoE-knockout animals. The peptide used was a modified 18A of the present invention with the sequence:
This peptide was administered to animals on a normal diet, to determine if the intraperitoneal administration of this peptide would inhibit lesions that these animals produce spontaneously, even without high fat diet administration. The lesions in this case is different than that produced after sixteen weeks of high fat diet administration in 57BL6/J mice.

[2] = test system: plasma cholesterol in B16/SJL mice; test: Effect of peptides on total cholesterol, high fat diet administered to B16/SJL mice; assay type: in vivo
Protocol: Peptide injections (50 μg/animal/day for 16 weeks).

[3] = test system: diet administered atherosclerosis in peptide transgenic mice; test: In vitro fertilized peptide-transgenic mice on high fat diet for 16 weeks (plasma peptide, cholesterol, aortic cross-section); assay type: in vivo; settings: transgenic IVF mice, retroorbital bleed, Western analysis; some of the mice
Excerpt: The peptide gene was then cloned into the MunI site of the apoE-promoter that is specific for expression of the peptide/protein in the liver. SalI-Spel fragment of the apoE promoter to which the peptide gene was subcloned was microinjected into mouse oocytes to produce transgenic mice. […] Further transgenic mice were generated from these two founders and analysed for the presence of peptide gene.
This produced a number of animals with the peptide gene present in different amounts. Western analysis using the antibody produced for the chemically synthesized peptide indicated the presence of peptide in different amounts (FIG. 4).
The animals were then administered TeckLad diet that is known to produce foam cell lesions in 57BL6/J mice when administered for sixteen weeks. At the end of sixteenth week, mice were sacrificed, plasma was collected and the hearts were harvested. The aortal cross-sections were stained with Oil Red O that stains lipid laden fatty streaks. The plasma samples were subjected to lipoprotein analysis. The results of plasma analysis indicated clearly that the profiles were different from each other and some of the profiles looked very similar to the control mice on the normal diet, with the cholesterol values around ≤100 mg/dl.
Blood from the in vitro fertilized animals were obtained from the retroorbital bleed and red cells were separated by centrifugation. […]

[4] = IP administration of radiolabelled 18A-Pro-18A and human apo A-I in mice, plasma radioactivity; assay type: in vivo, 57BL6/J mice; settings: for amount of the injected dosage present in the blood: 4 or 5 hours following IP injection, based on specific activity; for Total plasma cpm as a percent of the injected cpm: IP, radiolabelled, 4 or 5 hours (respectively) after injection, plasma volume assumed 4.2% of body weight; for presence of the radiolabel in isolated lipoprotein fractions (FPLC): after IP injection; for form of radioactivity in the plasma (TCA precipitation and FPLC analysis): early time points (up to 5 hours)
Protocol: Since the peptide administration experiments involves intraperitoneal administration of peptide, the effect of administration of radiolabelled peptide and human apo A-I was compared in mice. Briefly, approximately 200,000 cpm of either the peptide (4.4 μg) or human apo A-I (3.0 μg) were administered intraperitoneally into 57BL6/J mice and blood samples were taken by retro-orbital bleeding from anesthetized animals. The final time point was taken from the axilla of anesthetized animals. Radioactivity was measured in plasma sample, and was calculated as total plasma cpm, assuming plasma volume as 4.2% of the body weight.
Based on the specific activity of the radiolabelled materials, approximately […] of the injected dosage was present in the blood after 4 or 5 hours following the injection. […] It should be noted that the major lipoprotein in 57BL6/J mice is HDL.
Thus, intraperitoneal administration allows for the peptide or human apoA-I to be released into plasma gradually. Intraperitoneal administration of the peptide is therefore feasible

[5] = test system: HIV-I Gp4l-induced cell fusion; test: HIV-I Gp41-induced cell fusion; assay type: cell-based
[6] = test system: diet-induced lipid accumulation in C57 BL6/J mice; test: IP administration of peptide for sixteen weeks to high fat diet administered C57BL 6/J mice (aortal histology, total cholesterol, mortality); assay type: in vivo
Protocol: C57BL mice were administered a high cholesterol diet (modified Thomas Hartcroft) and were divided into two groups. Group I received intraperitoneal administration of saline each day for 16 weeks. Group II received intraperitoneal administration of the peptide solution (μg/mice/day) for 16 weeks. At the end of the experiment, mice were sacrificed and aortas were harvested, cross-sectioned and stained with Oil Red O. FIGS. 1A-1F show the cross sections of the aortas from animals 1 and 2.
A dosage of peptide to be injected was selected based on the in vivo studies conducted using 18A to inhibit the LPS-induced toxicity in mice (Levine, et al., PNAS, 1993, 90:12040-12044). In these experiments, […] of the peptide 18A was used per mouse to inhibit endotoxin-induced death of mice. Because of the solubility of the peptide 37pA, and since it was desirable to maintain the same volume used by Levine et al, […] of peptide per mouse per day was injected.
Peptide 18A-Pro-18A dissolved in sterile saline was administered IP everyday for sixteen weeks 11 animals on high fat diet. Control animals on high fat diet were administered saline for sixteen weeks. At the end of sixteen weeks, animals were sacrificed and histology of hearts were done. The mortality in both the groups were similar (only three in each groups) indicating no toxicity due to peptide 18A-Pro-18A administration.

[7] = Stability of peptide lipid complex; assay type: physicochemical; settings: compared to 18A-Ala-18A and 18A-18A
Excerpt: 1. The tandem repeating class A amphipathic helix linked by a proline forms an optimal arrangement for lipid association.
(§1) 2. The amphipathic helical peptide 18A-Pro-18A is the closest mimic of human apoA-I as a bilayer stabilizer. Bilayer stabilizers increase the transition temperature of DOPE whereas destabilizing molecules decrease the transition temperature. Such a destabilization can cause the inverted phase lipids (or hexagonal phase). Formation of this by the lytic peptide can be inhibited by human apoA-I or class A peptides.

[8] = Bilayer stabilization (transition temperature of DOPE); assay type: physicochemical
Excerpt: as §1

neutrophil activation = test: Neutrophil activation; assay type: cell-based
[9] = Turnover (clearance curves) in rats; settings: 18A-Pro-18A versus human apo A-I
[10] = target: T1, HDL receptor on rat adrenal cells (Rattus norvegicus, UniProt P97943); test: Competition with HDL for binding to rat adrenal cells
T1 construct: endogenous in cells; host or cells: rat adrenal cells
T1 sequence (P97943 1-509): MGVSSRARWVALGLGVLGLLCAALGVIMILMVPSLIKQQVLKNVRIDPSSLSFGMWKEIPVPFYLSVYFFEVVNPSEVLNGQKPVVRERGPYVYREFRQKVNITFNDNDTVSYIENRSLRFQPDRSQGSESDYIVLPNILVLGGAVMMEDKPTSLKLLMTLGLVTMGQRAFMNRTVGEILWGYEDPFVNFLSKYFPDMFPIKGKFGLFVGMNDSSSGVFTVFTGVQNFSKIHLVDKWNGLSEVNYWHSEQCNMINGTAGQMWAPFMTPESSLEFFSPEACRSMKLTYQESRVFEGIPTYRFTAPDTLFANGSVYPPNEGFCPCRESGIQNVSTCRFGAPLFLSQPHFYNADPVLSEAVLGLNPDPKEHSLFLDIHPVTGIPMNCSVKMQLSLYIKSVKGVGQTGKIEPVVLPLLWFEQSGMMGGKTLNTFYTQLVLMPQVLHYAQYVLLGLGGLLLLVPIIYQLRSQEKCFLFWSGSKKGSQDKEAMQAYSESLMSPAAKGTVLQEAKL
Excerpt: 5) The amphipathic helical peptide 18A-Pro-18A competes with HDL for binding to rat adrenal cells. Recently, it has been shown that HDL delivers cholesterol to the cells through class B scavenger receptor SRBI. This receptor binds HDL with high affinity and is primarily expressed in the liver and in nonplacental steroidogenic tissues.

[11] = BSA-induced lysis of fatty acid-containing vesicles
[12] = test system: human placental lactogen synthesis; test: Stimulation of human placental lactogen synthesis; assay type: cell-based
cholesterol-loaded cells = test: Efflux of phospholipid and cellular cholesterol from cholesterol-loaded cells; assay type: cell-based
Excerpt: 4) The amphipathic helical peptide 18A-Pro-18A mimics HDL in clearing cellular cholesterol. The removal of cholesterol from peripheral cells by HDL is thought to initiate the process of reverse cholesterol transport. HDL is capable of stimulating the net release of cholesterol from cells. This process thus inhibits the formation of foam cells, the hallmark of atherosclerosis.

[13] = rat, in vivo

For “Ac-DWLKAFYDKVFEKFKEFF-NH2 [5F, Ac-Asp-Trp-Leu-Lys-Ala-Phe-Tyr-Asp-Lys-Val-Phe-Glu-Lys-Phe-Lys-Glu-Phe-Phe-NH2]”, the aortal lesions ([1]; listed as SEQ No. 2) was “effective”, the aortal lesions ([1]; listed as modified 18A) was “virtually no lesion” and the “VLDL-density particles in cholesterol profile compared to control animals” value ([1]; after sixteen weeks, IP, normal diet) was “decreased considerably”. For the same substance, the Total cholesterol ([2]; high fat diet, 50 μg/animal/day for 16 weeks, individual mice (Table III)) was 156 and 161 and 182 and the “levels of plasma cholesterol” value ([2]; peptide injections 50 μg/animal/day for 16 weeks) was “markedly decreases”.

With “DEPDWLKAFYDKVAEKLKEAFPDWLKAFYDKVAEKLKEAF [Asp-Glu-Pro-18A-Pro-18A]” the “amount of peptide in the plasma” value [3] was “approximately 20 μg/ml”.

In the case of “DWLKAFYDKVAEKLKEAFPDWLKAFYDKVAEKLKEAF [18A-Pro-18A, class A amphipathic helical peptide 18A as head-to-tail dimer with a proline incorporated]”, the “amount of the injected dosage present in the blood” value [4] is reported as “approximately 1 mg”, the “Total plasma cpm as a percent of the injected cpm” value [4] is reported as 25.5% and the “presence of the radiolabel in isolated lipoprotein fractions (FPLC)” value [4] is reported as “exclusively in HDL”. For the same substance, the “form of radioactivity in the plasma (TCA precipitation and FPLC analysis)” value [4] was “present in the intact peptide/protein”, the “effectiveness in HIV-I Gp4l-induced cell fusion” value [5] was “most effective peptide” and the “antibody to the peptide” value ([6]; IP every day for sixteen weeks) was “no antibody was detected”. The “toxicity (mortality compared with saline group)” value ([6]; IP every day for sixteen weeks, high fat diet) was “no toxicity”, the “foam cells in cross sections from the aorta” value ([6]; IP over 16 weeks, high fat diet, FIG. 1C) was “no foam cells can be seen” and the “lipid accumulation in aortal cross sections compared to the control group” value ([6]; IP sixteen weeks, high fat diet, Oil Red O) was “less lipid accumulation”. The Total cholesterol ([6]; mice on high fat diet and peptide administered, individual mice (Table I)) was 156 mg/dL and 161 mg/dL and 182 mg/dL, the stability of complex [7] was “most stable complex” and the bilayer stabilizing property [8] was “most bilayer stabilizing property”. For the same substance, the “effectiveness in neutrophil activation” value (neutrophil activation) was “most effective peptide”, the clearance curves [9] was “virtually superimposable” and the “competition with HDL for binding” value [10] was “competes”. For the same substance, the “effectiveness in BSA-induced lysis of fatty acid-containing vesicles” value [11] was “most effective peptide”, the “effectiveness in stimulating human placental lactogen synthesis” value [12] was “most effective peptide” and the “efflux of phospholipid and cellular cholesterol” value (cholesterol-loaded cells) was “effectively effluxes”.

With “human apo A-I: human apolipoprotein A-I, protein component of HDL, used as comparator” the “amount of the injected dosage present in the blood” value [4] was “approximately 1 mg”, the “Total plasma cpm as a percent of the injected cpm” value [4] was 32% and the “presence of the radiolabel in isolated lipoprotein fractions (FPLC)” value [4] was “exclusively in HDL”. For the same substance, the “form of radioactivity in the plasma (TCA precipitation and FPLC analysis)” value [4] was “present in the intact peptide/protein” and the clearance curves [13] was “virtually superimposable”.
